Assays:
CDA-ZnF-KLF1 = CDA-ZnF-KLF1 (mouse, UniProt P46099 275-358, E321K); assay: EMSA
WT-ZnF-KLF1 = WT-ZnF-KLF1 (mouse, UniProt P46099 275-358); assay: EMSA
Chain of WT-ZnF-KLF1 (P46099 275-358): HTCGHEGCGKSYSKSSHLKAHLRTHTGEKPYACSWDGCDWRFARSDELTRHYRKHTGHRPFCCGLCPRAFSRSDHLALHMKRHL

Chain of CDA-ZnF-KLF1 (P46099 275-358 E321K): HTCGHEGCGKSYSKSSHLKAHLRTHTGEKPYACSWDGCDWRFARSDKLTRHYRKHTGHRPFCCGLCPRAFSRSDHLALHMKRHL

B1: 9xG (CDA-GGG) (dsDNA)
DNA 1: AGCTAAGGGGGGGGGCA
DNA 2: AGCTTGCCCCCCCCCTT
Kd (CDA-ZnF-KLF1): 696 ± 71.1 nM | Kd (WT-ZnF-KLF1): ~4990 nM

Reference: article doi:10.1101/774158
